Experimental data as given in PMC5105068.

Target: soluble γc protein (sγc), recombinant murine (mouse)
Experiment: immunoprecipitation and immunoblot, SDS-PAGE under reducing and non-reducing conditions; culture supernatant of sγc expressing 293 T cells immunoprecipitated and immunoblotted with anti-γc ectodomain antibodies; resolved with (+ DTT) or without reduction

stoichiometry N: 2
Substance: soluble γc protein (sγc), recombinant murine (natural protein)
